B1: IL-2: Interleukin 2 (protein, UniProt P04351 21-169, looked up)
Interleukin-2: APTSSSTSSSTAEAQQQQQQQQQQQQHLEQLLMDLQELLSRMENYRNLKLPRMLTFKFYLPKQATELKDLQCLEDELGPLRHVLDLTQSKSFQLEDAENFISNIRVTVVKLKGSDNTFECQFDDESATVVDFLRRWIAFCQSIISTSPQ
B2: IL-10: interleukin (protein, UniProt P18893 19-178, looked up)
Interleukin-10: SRGQYSREDNNCTHFPVGQSHMLLELRTAFSQVKTFFQTKDQLDNILLTDSLMQDFKGYLGCQALSEMIQFYLVEVMPQAEKHGPEIKEHLNSLGEKLKTLRMRLRRCHRFLPCENKSKAVEQVKSDFNKLQDQGVYKAMNEFDIFINCIEAYMMIKMKS
B3: IL-1β: interleukin (protein, UniProt P10749 118-269, looked up)
Interleukin-1 beta: VPIRQLHYRLRDEQQKSLVLSDPYELKALHLNGQNINQQVIFSMSFVQGEPSNDKIPVALGLKGKNLYLSCVMKDGTPTLQLESVDPKQYPKKKMEKRFVFNKIEVKSKVEFESAEFPNWYISTSQAEHKPVFLGNNSGQDIIDFTMESVSS

The molecules below were run on freshly isolated dendritic cells (CD11c+ splenocytes) (assay: Dendritic cell (DC) assay: IL-12 release). Details: tested for synergism and inhibition.
Type: cell-based, BALB/c mice
Source text: In a preferred embodiment, dendritic cell (DC) assay is used to follow interleukin-12 (IL-12) release from freshly isolated dendritic cells as an index of DC activation (see section 13). […] Briefly, by way of example but not limitation, a DC assay can be carried out as follows: freshly isolated dendritic cells (CD11c^+ splenocytes, e.g., isolated from the spleens of BALB/c mice within ten hours of assaying the activity) are suspended at a density of 0.5×10^6 cells per mL in cytokine supplemented culture media (GM-CSF, 1.0 ng/ml; IL-4, 1.0 ng/ml; IFNg, 3 ng/ml; anti mouse CD40; 0.5 mg/ml). […] Mouse IL-12 release from the dendritic cells (CD11c^+ splenocytes) is then measured using ELISA.
DCs were isolated from the spleens of male BALB/c mice 8-12 weeks of age (Harlan Bioproducts for Science, Indianapolis, Ind.), using the magnetic assisted cell separation (MACS) system purchased from Miltenyi Biotech. In summary: Spleens were aseptically removed from mice and placed into a petri dish containing 5 mL holding media (DMEM/F12 supplemented with 10% FCS and antibiotics). Each spleen was then injected with ˜0.5 mls collagenase D solution (1 mg/mL in 10 mM Hepes-NaOH, pH 7.4, 150 mM NaCl, 5 mM MgCl2, 1.8 mM CaCl2), placed into 5-10 mL collagenase D, cut into 5-6 pieces and incubated at 37° C. for 45-60 min. Collagenase-digested spleens were then processed with glass slides and passed through a 70 μm nylon mesh cell strainer. After the strainer was flushed with 40 mL culture media, cells were centrifuged (8 min @ 200×G), suspended in 1 mL PBS and subjected to red blood cell lysis by incubating the cell suspension for 5 min at room temperature in 10 mL lysis buffer (155 mM NH4Cl, 10 mM KHCO3, 0.1 mM EDTA), followed by dilution in PBS to 50 mL and centrifugation (8 min @ 200×g). The splenocytes were then suspended in 10 mL MACS buffer (PBS pH 7.2, supplemented with 2 mM EDTA and 0.5% BSA), passed through a 40 μm nylon mesh cell strainer which was flushed with 40 mL MACS buffer. A preliminary cell count was taken at this time, prior to centrifugation (8 min @ 200×G). The splenocytes were suspended at a density of 10^8 cells per 400 μL MACS buffer. Paramagnetic MicroBeads coated with anti-CD11c antibody were mixed with the splenocyte suspension (100 μL per 10^8 cells), incubated at +4° C. for 15 min, washed, suspended in 1.0 mL MACS buffer and passed through a MS+separation column placed within a strong magnetic field. CD11c^+ cells were retained in the column whereas CD11c^− cells were washed off the column as the flow-through cell fraction. CD11c^+ cells were then collected by removing the column out of the magnetic field and flushing the column twice with 1 mL of MACS buffer. CD11c^+ cells were washed once with culture media and suspended at a density of 0.5×10^6 cells per mL in cytokine supplemented culture media {DMEM/F12 supplemented with 10% FCS and gentamicin containing mouse GM-CSF (1 ng/mL), mouse IL-4 (1 ng/mL), mouse IFNγ (3 ng/mL) and anti mouse CD40 (0.5 mg/mL)}.
Mouse IL12 release from CD11c^+ splenocytes was measured using ELISA. Briefly, CD11c+ cell culture supernatants were sampled following an overnight incubation (usually 15-18 hrs). Media samples (100 μL) were added to ELISA plates coated with anti mouse IL12 (p70) capture antibody (R&D #MAB419; 250 ng in 100 μL per well) and incubated either at 37° C. or room temperature for 2 hrs. The ELISA plates were washed extensively with wash buffer after which 100 μL per well of detection antibody/detection reagent (biotinylated anti-mouse IL12; R&D #BAF419 at 50 ng/mL and streptavidin-HRP) was added. The ELISA plates were again incubated for 2 hours, washed and exposed to […] substrate solution (Pierce #34021) for 20 min. The substrate reaction was stopped by adding 100 μL/well 2M H2SO4. ELISA plates were read at 450 nm (corrected at 540 nm) and mIL12(p70) levels were calculated using an intra-ELISA standard curve (range: 2000-31.25 pg/mL).
In the case of IL-5: interleukin, the “DC/mIL12 Release” value is reported as “−”. FGFbasic: growth factor was tested, and the “DC/mIL12 Release” value was “−”. With IL-6: interleukin the “DC/mIL12 Release” value was “−”. With B1 the “DC/mIL12 Release” value was “−”. In the case of B2, the “DC/mIL12 Release” value is reported as “inhibitory”. B3 was tested, and the “DC/mIL12 Release” value was “−”.

These molecules were tested on Mouse sarcoma 180 cells (assay: not given). Details: not given.
Type: cell-based
Procedure: In one embodiment, a NK cell assay is used to assess ARP-induced cytotoxic activity of NK-like cells. Briefly, by way of example but not limitation, a NK cell assay can be carried out as follows: large granular lymphocytes (LGLs) are co-cultured with tumor cells at various ratios (effector to target ratio) for four days at 37° C., 5% CO2. […] The culture is terminated at the end of day 4 and vitally stained using a MTT cell viability quantification assay (see Mossman, T. J. Immunol. Methods 1983, 65:55; and Sigma Chemical MTT (M5655) product application note). Culture media is aspirated and the remaining cells are washed and replaced with DMEM/F12 plus FCS, containing MTT. The cells are further incubated for 4-5 hours at 37° C. Absorbance is measured with the aid of a plate reader. Decreased absorbance indicated a decrease in the number of viable cells per well (i.e., cytotoxicity). Absorbance is measured again after the MTT is solubilized by replacement of the medium with 2-propanol containing HCl, which gives a uniform color throughout the well. NK-inducing activity is calculated relative to negative (PBS/BSA) and positive (internal standard) controls.
Spleens (10-15 per experiment) were aseptically removed from male Balb/C mice 6-10 weeks of age. Splenocytes were “squeezed” out of spleens using 2 sterile glass microscope slides. Cells were collected in approximately 10 ml of DMEM/F12 containing 10% fetal calf serum (FCS) and gentamicin (50 μg/ml). Single cell suspensions were generated by passing collected cells through a 70 μm nylon mesh screen. After washing the cell pellet once with PBS (centrifuged at 675×g for 5 min), red blood cells were lysed by brief hypotonic shock (i.e. exposure to sterile distilled, deionized water, followed immediately with appropriate volumes of 10×PBS to return to isotonicity). Remaining cells were centrifuged and resuspended in DMEM/F12+10% FCS and transferred to 75 cm^2 flasks each containing 25 mls DMEM/F12+10% FCS (cells from 5 spleens per flask). The cells were incubated for 60 min. at 37° C. to selectively remove readily adherent cells (mainly fibroblasts and macrophages). After the incubation, the flasks were gently shaken and the non-adherent cells were removed, pelleted by centrifugation, and resuspended in DMEM/F12 (no supplements) (1.0 mL/10^8 cells). A 1.0 mL volume of these cell suspensions were carefully layered onto a 70%/60%/40% (2 mL/4 mL/4 mL) Percoll™ gradients in 15 ml centrifuge tubes and centrifuged for 30 min at 675×G. The cells which sediment at the 40/60 interface represent primarily large granular lymphocytes (LGLs), enriched with NK cells. These cells were carefully removed with a pasteur pipet, centrifuged, washed once with PBS and resuspended in approximately 5 mL DMEM/F12 supplemented with gentamicin (50 μg/mL) and 10% fetal calf serum. Cell counts and appropriate dilutions of LGL cells were made with these cells, as described below. For convenience this LGL cell preparation is interchangeably referred to as NK cells.
Mouse sarcoma 180 cells were seeded into 96 well plates at a density of 5×10^3 cells per well in 100 μl DMEM/F12, supplemented with 10% FCS and gentamicin (50 μg/mL). […] NK cells were added in 100 μL of supplemented DMEM/F12 at designated densities: 0 NK cells/well; 5×10^4 NK cells/well (1:10 target/effector ratio); 1.25×10^5 NK cells/well (1:25 target/effector ratio); 2.5×10^5 NK cells/well (1:50 target/effector ratio); and, 5×10^5 NK cells/well (1:100 target/effector ratio). (Note: routinely, only the 1:50 and 1:100 ratios were used for screening purposes. IL2 was added as a media supplement with final concentration of 125 U/mL.). Co-cultures were incubated for 4 days at 37° C., 5% CO2, and terminated and vitally stained using a MTT cell viability quantification assay (see Mossman, T. J. Immunol. Methods 65:55 (1983); and Sigma Chemical MTT (M5655) product application note). […]
For B1, the “Effect on NK-CMC (footnotes of Table 16)” value was “^4IL-2 significantly increases NK-CMC only at high concentrations”.

Same assay, conditions: IL2 alone (125 U/ml), highest NK:S180 ratio (100_NK)
With B1 the “basal NK-CMC activity” value was 10-15%.

Same assay, conditions: wide range of concentrations, in the presence and absence of IL-2 (125 U/ml)
IL-5: interleukin was tested, and the “NK-CMC Activity” value was “−”. With FGFbasic: growth factor the “NK-CMC Activity” value was “−”. With IL-6: interleukin the “NK-CMC Activity” value was “−”. In the case of B2, the “NK-CMC Activity” value is reported as “−”. B3 was tested, and the “NK-CMC Activity” value was “−^3”.
